Source: patent US20180318440A1 (US Dept. of Health and Human Services, published 2018)

Key:
[1] = biological target: T1, human FGFR4 extracellular domain (FGFR4-ECD) (human, UniProt P22455 22-369); test: SPR (BIACORE), mAb immobilized on the chip, FGFR4-ECD in solution
T1 construct: extracellular domain; also called hFGFR4-ECD
T1 sequence (looked up): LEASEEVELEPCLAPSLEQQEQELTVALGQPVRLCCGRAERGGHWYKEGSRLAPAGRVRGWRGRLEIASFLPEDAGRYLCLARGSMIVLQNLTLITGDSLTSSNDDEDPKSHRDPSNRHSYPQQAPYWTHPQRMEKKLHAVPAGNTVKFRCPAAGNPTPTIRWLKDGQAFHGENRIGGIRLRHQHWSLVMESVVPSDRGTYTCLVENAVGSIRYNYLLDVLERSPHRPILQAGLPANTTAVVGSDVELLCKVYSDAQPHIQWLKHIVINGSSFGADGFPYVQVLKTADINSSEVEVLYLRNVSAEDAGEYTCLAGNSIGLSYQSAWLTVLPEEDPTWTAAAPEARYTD
Experimental: (§1) The affinity of two of the FGFR4-specific mAbs was tested using surface plasmon resonance.
(§2) The mAb was immobilized in a CMS chip and the binding of FGFR4 extracellular domain (FGFR4-ECD) was detected by measuring surface plasmon resonance in a BIACORE™ instrument

[2] = biological target: T1, human FGFR4 extracellular domain …; test: SPR (BIACORE), mAb immobilized on the chip, FGFR4-ECD in solution; 'Observed KD'
Experimental: as §1, §2

[3] = biological target: T1, human FGFR4 extracellular domain …; test: SPR (BIACORE), mAb immobilized on the chip, FGFR4-ECD in solution; column head prints 10^4, read as 10^-4 because that agrees with the printed kon and KD
Experimental: as §1, §2

B1: 29.2 rabbit anti-FGFR4 mAb (antibody, V domains shown)
VH: QSVKESEGRLVTPGTPLTLTCTVSGFSLSSNSVGWVRQAPGKGLEWIGIISSSGNRYYASWAKGRFTISKTSTTVDLKITSPTTEDTATYFCGGDPVSWYGDIWGPGTLVTVSS
VL: ELVLTQTPSSVSAAVGGTVTINCQSSPSLYKNNYLSWYQQKPGQPPKLLIYSASTLASGVPSRFKGSGSGTEYTLTISGVQCDDAATYYCLGGYSLSSDSPRAFGGGTEVVVK
B1 was tested, and the kon [1] was 25000 M⁻¹ s⁻¹, the Kd [2] was 17 nM and the koff [3] was 0.00043 s⁻¹.

B2: 57.1 rabbit anti-FGFR4 mAb (antibody, V domains shown)
VH: QSVKESEGRLVTPGTPLTLTCTVSGFSLSTYAMSWVRQAPEKGLEWIGIIYATAETYYATWARGRFTISKTSTTVDLKITSPATEDTATYFCARLNGDGSGTYAYDIWGPGTLVTVSS
VL: ELVMTQTPSPVSAAVGGTVTINCQASQSISSSYLSWYQQKPGQPPKLLIYKASTRPSGVSSRFKGSGSGTQFTLTISGVQCADAATYYCLYGYYIDSGADNSFGGGTEVVVK
In the case of B2, the kon [1] is reported as 1700 M⁻¹ s⁻¹, the Kd [2] is reported as 110 nM and the koff [3] is reported as 0.00018 s⁻¹.
